Measured values: the supplement of paper PMC10567573

B1: RSPH3 (parent)
chain: LELQRQREARKRALARKQAQEQLR

Variants of: B1
Experiment: protein stability index of a GFP-peptide fusion (GPS, HEK-293T) (PSI 1-6); higher = more stable
Conditions: c terminus: a fixed tail appended
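Also: lentivirally expressed fusions sorted by FACS into six bins by GFP to DsRed ratio, PSI derived from sequencing read proportions per bin multiplied by bin number.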

Variant	protein stability index
LELQKQREARKRALARKQAQEQLR [R5K]	4.25
LELQEQREARKRALARKQAQEQLR [R5E]	3.68
LELQVQREARKRALARKQAQEQLR [R5V]	4.36
LELQPQREARKRALARKQAQEQLR [R5P]	3.89
LELQAQREARKRALARKQAQEQLR [R5A]	5.05
LELQMQREARKRALARKQAQEQLR [R5M]	4.03
LELQDQREARKRALARKQAQEQLR [R5D]	4.27
LELQCQREARKRALARKQAQEQLR [R5C]	4.09
LELQQQREARKRALARKQAQEQLR [R5Q]	4.32
LELQHQREARKRALARKQAQEQLR [R5H]	4.21
LELQGQREARKRALARKQAQEQLR [R5G]	4.34
LELQSQREARKRALARKQAQEQLR [R5S]	4.16
LELQWQREARKRALARKQAQEQLR [R5W]	4.02
LELQIQREARKRALARKQAQEQLR [R5I]	3.77
LELQYQREARKRALARKQAQEQLR [R5Y]	4.19
LELQFQREARKRALARKQAQEQLR [R5F]	3.91
LELQTQREARKRALARKQAQEQLR [R5T]	4.17
LELQLQREARKRALARKQAQEQLR [R5L]	3.25
LELQNQREARKRALARKQAQEQLR [R5N]	3.72
LMLQRQREARKRALARKQAQEQLR [E2M]	2.92
LSLQRQREARKRALARKQAQEQLR [E2S]	3.56
LYLQRQREARKRALARKQAQEQLR [E2Y]	2.52
LHLQRQREARKRALARKQAQEQLR [E2H]	3
LNLQRQREARKRALARKQAQEQLR [E2N]	3.69

Variant	protein stability index
LKLQRQREARKRALARKQAQEQLR [E2K]	4.11
LCLQRQREARKRALARKQAQEQLR [E2C]	3.13
LILQRQREARKRALARKQAQEQLR [E2I]	2.34
LQLQRQREARKRALARKQAQEQLR [E2Q]	3.93
LGLQRQREARKRALARKQAQEQLR [E2G]	2.95
LVLQRQREARKRALARKQAQEQLR [E2V]	2.79
LLLQRQREARKRALARKQAQEQLR [E2L]	2.6
LRLQRQREARKRALARKQAQEQLR [E2R]	3.57
LTLQRQREARKRALARKQAQEQLR [E2T]	3.15
LFLQRQREARKRALARKQAQEQLR [E2F]	2.56
LPLQRQREARKRALARKQAQEQLR [E2P]	3.58
LDLQRQREARKRALARKQAQEQLR [E2D]	3.91
LALQRQREARKRALARKQAQEQLR [E2A]	3.1
LWLQRQREARKRALARKQAQEQLR [E2W]	2.59
LELQRIREARKRALARKQAQEQLR [Q6I]	2.98
LELQRAREARKRALARKQAQEQLR [Q6A]	4.14
LELQRRREARKRALARKQAQEQLR [Q6R]	3.41
LELQRSREARKRALARKQAQEQLR [Q6S]	3.76
LELQREREARKRALARKQAQEQLR [Q6E]	4.46
LELQRYREARKRALARKQAQEQLR [Q6Y]	3.71
LELQRCREARKRALARKQAQEQLR [Q6C]	3.17
LELQRNREARKRALARKQAQEQLR [Q6N]	3.73
LELQRDREARKRALARKQAQEQLR [Q6D]	4.05
LELQRLREARKRALARKQAQEQLR [Q6L]	3.33

Variant	protein stability index
LELQRTREARKRALARKQAQEQLR [Q6T]	3.87
LELQRHREARKRALARKQAQEQLR [Q6H]	2.96
LELQRGREARKRALARKQAQEQLR [Q6G]	4.55
LELQRVREARKRALARKQAQEQLR [Q6V]	3.37
LELQRFREARKRALARKQAQEQLR [Q6F]	3.35
LELQRMREARKRALARKQAQEQLR [Q6M]	2.92
LELQRWREARKRALARKQAQEQLR [Q6W]	4.26
LELQRPREARKRALARKQAQEQLR [Q6P]	3.64
LELQRKREARKRALARKQAQEQLR [Q6K]	4.63
LELQRQFEARKRALARKQAQEQLR [R7F]	4.1
LELQRQHEARKRALARKQAQEQLR [R7H]	4.29
LELQRQQEARKRALARKQAQEQLR [R7Q]	4.01
LELQRQAEARKRALARKQAQEQLR [R7A]	3.61
LELQRQEEARKRALARKQAQEQLR [R7E]	4.31
LELQRQSEARKRALARKQAQEQLR [R7S]	4.36
LELQRQTEARKRALARKQAQEQLR [R7T]	4.43
LELQRQPEARKRALARKQAQEQLR [R7P]	3.71
LELQRQCEARKRALARKQAQEQLR [R7C]	3.87
LELQRQMEARKRALARKQAQEQLR [R7M]	3.52
LELQRQKEARKRALARKQAQEQLR [R7K]	3.56
LELQRQNEARKRALARKQAQEQLR [R7N]	4.08
LELQRQIEARKRALARKQAQEQLR [R7I]	3.25
LELQRQGEARKRALARKQAQEQLR [R7G]	4.52
LELQRQVEARKRALARKQAQEQLR [R7V]	4.02

Variant	protein stability index
LELQRQWEARKRALARKQAQEQLR [R7W]	3.46
LELQRQLEARKRALARKQAQEQLR [R7L]	4.2
LELQRQYEARKRALARKQAQEQLR [R7Y]	3.85
LELQRQDEARKRALARKQAQEQLR [R7D]	4.49
LELLRQREARKRALARKQAQEQLR [Q4L]	3.22
LELMRQREARKRALARKQAQEQLR [Q4M]	2.32
LELCRQREARKRALARKQAQEQLR [Q4C]	3.52
LELTRQREARKRALARKQAQEQLR [Q4T]	4.06
LELPRQREARKRALARKQAQEQLR [Q4P]	3.51
LELFRQREARKRALARKQAQEQLR [Q4F]	3.12
LELKRQREARKRALARKQAQEQLR [Q4K]	3.55
LELNRQREARKRALARKQAQEQLR [Q4N]	3.76
LELDRQREARKRALARKQAQEQLR [Q4D]	3.96
LELERQREARKRALARKQAQEQLR [Q4E]	4.3
LELYRQREARKRALARKQAQEQLR [Q4Y]	3.03
LELIRQREARKRALARKQAQEQLR [Q4I]	2.95
LELWRQREARKRALARKQAQEQLR [Q4W]	3.43
LELGRQREARKRALARKQAQEQLR [Q4G]	3.41
LELSRQREARKRALARKQAQEQLR [Q4S]	4.27
LELARQREARKRALARKQAQEQLR [Q4A]	3.17
LELHRQREARKRALARKQAQEQLR [Q4H]	4.2
LELVRQREARKRALARKQAQEQLR [Q4V]	3.43
